Data published in publication PMC5063613 (Molecular Biology of the Cell, 2016).

Target: T1, GFP-C9orf72 (human, UniProt Q96LT7-1 1-481)
T1 sequence: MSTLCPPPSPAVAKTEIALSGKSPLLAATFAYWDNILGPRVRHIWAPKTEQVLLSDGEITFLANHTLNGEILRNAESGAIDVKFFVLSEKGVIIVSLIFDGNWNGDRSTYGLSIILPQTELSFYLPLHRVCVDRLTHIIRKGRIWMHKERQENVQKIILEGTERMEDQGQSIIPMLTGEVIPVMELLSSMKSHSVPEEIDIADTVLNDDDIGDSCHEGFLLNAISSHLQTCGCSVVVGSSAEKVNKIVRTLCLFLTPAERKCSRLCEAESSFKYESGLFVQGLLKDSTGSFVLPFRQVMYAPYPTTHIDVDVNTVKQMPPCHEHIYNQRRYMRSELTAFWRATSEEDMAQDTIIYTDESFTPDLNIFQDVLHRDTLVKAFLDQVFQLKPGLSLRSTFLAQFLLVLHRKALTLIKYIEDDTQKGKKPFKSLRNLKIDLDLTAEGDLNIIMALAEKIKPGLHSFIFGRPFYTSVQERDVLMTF
Assay: co-IP

B1: SMCR8-tdTomato (natural protein)
chain: MISAPDVVAFTKEEEYEEEPYNEPALPEEYSVPLFPFASQGANPWSKLSGAKFSRDFILISEFSEQVGPQPLLTIPNDTKVFGTFDLNYFSLRIMSVDYQASFVGHPPGSAYPKLNFVEDSKVVLGDSKEGAFAYVHHLTLYDLEARGFVRPFCMAYISADQHKIMQQFQELSAEFSRASECLKTGNRKAFAGELEKKLKDLDYTRTVLHTETEIQKKANDKGFYSSQAIEKANELASVEKSIIEHQDLLKQIRSYPHRKLKGHDLCPGEMEHIQDQASQASTTSNPDESADTDLYTCRPAYTPKLIKAKSTKCFDKKLKTLEELCDTEYFTQTLAQLSHIEHMFRGDLCYLLTSQIDRALLKQQHITNFLFEDFVEVDDRMVEKQESIPSKPSQDRPPSSSLEECPIPKVLISVGSYKSSVESVLIKMEQELGDEEYKEVEVTELSSFDPQENLDYLDMDMKGSISSGESIEVLGTEKSTSVLSKSDSQASLTVPLSPQVVRSKAVSHRTISEDSIEVLSTCPSEALIPDDFKASYPSAINEEESYPDGNEGAIRFQASISPPELGETEEGSIENTPSQIDSSCCIGKESDGQLVLPSTPAHTHSDEDGVVSSPPQRHRQKDQGFRVDFSVENANPSSRDNSCEGFPAYELDPSHLLASRDISKTSLDNYSDTTSYVSSVASTSSDRIPSAYPAGLSSDRHKKRAGQNALKFIRQYPFAHPAIYSLLSGRTLVVLGEDEAIVRKLVTALAIFVPSYGCYAKPVKHWASSPLHIMDFQKWKLIGLQRVASPAGAGTLHALSRYSRYTSILDLDNKTLRCPLYRGTLVPRLADHRTQIKRGSTYYLHVQSMLTQLCSKAFLYTFCHHLHLPTHDKETEELVASRQMSFLKLTLGLVNEDVRVVQYLAELLKLHYMQESPGTSHPMLRFDYVPSFLYKI
- stoichiometry N: ~1
